In patent publication US20130177570A1 (PURDUE RESEARCH FOUNDATION, published 2013):

Columns and labels:
[1] = target: T1, recombinant human folate receptor beta (FRβ), residues 22 to 236 (human, UniProt P14207 22-236); assay: ELISA, recombinant FRβ coated, Fab detected with anti-FLAG-HRP
T1 construct: Produced in SF9 insect cells with baculovirus, then purified by nickel column and gel filtration; also called recombinant FRβ; FRβ protein
Procedure: To characterize the m909 antibody, an ELISA was performed as follows. FRβ, diluted in PBS, was coated on half of the wells of a 96 well plate at 50 ng/well overnight at 4° C. Wells were blocked with 100 μl of 4% milk/PBS (MPBS) for 1 hr at 37° C. For Fab binding kinetics, Fab was titrated from 3000 nM to 0.038 nM (1:5 serial dilutions) then 50 μl of diluted Fab was added to duplicate wells. After 2 hr incubation at 37° C., the wells were washed four times with PBST (PBS+0.05% Tween 20). Bound Fab was detected by incubating with anti-FLAG-horseradish peroxidase (HRP) mAb (1:1000) (Sigma) for 1 hr at 37° C. Wells were washed again with PBST. The HRP substrate 2,2′-azino-bis(3-ethylbenzthiazoline-6-sulphonic acid) (ABTS) was added (50 μl/well), and the absorbance at 405 nm was determined. For ELISA with IgG, a goat anti-human Fc IgG conjugated with HRP was used at 1:1000. FIG. 3 is a graph depicting the binding of m909 IgG₁ to FRβ.

[2] = target: T1, recombinant human folate receptor beta …; assay: phage display panning and screening on coated FRβ protein
Procedure: Purified FRβ was used for panning of a human naïve (not deliberately immunized) Fab phage library. Briefly, 2 μg of FRβ was coated on a Maxisorp plate, which was then incubated with library phage (˜10¹² pfu) for 2 hr. After extensively washing the wells with PBS+0.05% Tween 20 (PBST), phage were rescued by incubating with exponentially growing TG1 bacteria and helper phage. The panning procedure was repeated three more times with more stringent conditions in the latter two rounds, including decreased amounts of FRβ protein and additional washes with PBST. Three hundred colonies were picked from the last two rounds of panning and rescued with helper phage.

T1 sequence (P14207 other isoform, or with tags, fused parts or gaps): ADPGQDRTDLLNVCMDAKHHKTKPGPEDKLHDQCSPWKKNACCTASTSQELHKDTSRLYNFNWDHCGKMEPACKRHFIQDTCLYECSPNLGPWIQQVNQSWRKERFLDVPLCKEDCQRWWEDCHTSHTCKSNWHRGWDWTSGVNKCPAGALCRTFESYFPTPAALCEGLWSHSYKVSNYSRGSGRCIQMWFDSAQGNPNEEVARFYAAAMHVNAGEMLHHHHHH

Row | Binder | EC50 [1] [nM] | binding result [2]
1 | m909 Fab (Fab, V domains shown, Soluble Fab expressed in E. coli HB2151; The phagemid adds His6 and FLAG tags at the C-terminus of the Fab) VH: EVQLVQSGAEVKKPGASVKVSCKASGYTFTSYAMHWVRQAPGQRLEWMGWINAGNGNTKYSQKFQGRVTITRDTSASTAYMELSSLRSEDTAVYYCARDISYGSFDYWGQGTLVTVSS VL: SSELTQDPAVSVALGQTVRITCQGDSLRSNYANWYQQKPGQAPVLVIYGQNNRPSGIPDRFSGSSSGNTASLTITGAQAADEADYYCDSRVSTGNHVVFGGGTKLTVLG | 20 | –
2 | m923 (Fab, V domains shown, Clone from the Fab phage library after light chain shuffling; also called clone m923) VH: EVQLVQSGAEVKKPGASVKVSCKASGYTFTSYAMHWVRQAPGQRLEWMGWINAGNGNTKYSQKFQGRVTITRDTSASTAYMELSSLRSEDTAVYYCARDISYGSFDYWGQGTLVTVSS VL: SSELTQDPAVSVALGQTVRITCQGDNLRSYYASWYRQKSGQAPVLVIYGKNNRPSGIPDRFSGSSSGNTASLTITAAQAEDEADYYCHSRKSRGNHLLFGGGTKLTVLG | – | binds
